Series [1] deals with T1, pro-uPA wild type;uPAR (Homo sapiens;Homo sapiens, UniProt P00749;Q03405 21-431;23-305, |). Description: SPR competition; 200 nM control RNA; no significant effect on vitronectin binding; SPR: HBS (20 mM HEPES, 140 mM NaCl, pH 7.4), 2 mM MgCl2, 0.1% BSA, 0.005% Tween 20, temperature not stated; SAXS: HBS, 2 mM MgCl2, 25 C. The note with it: protein: recombinant;recombinant; tags: ;; copies: 1;1.

Series [2] concerns the target T2, pro-uPA wild type (Homo sapiens, UniProt P00749 21-431). Description: SPR competition; up to 200 nM control RNA; no effect on pro-uPA binding to LRP-1A; SPR: HBS (20 mM HEPES, 140 mM NaCl, pH 7.4), 2 mM MgCl2, 0.1% BSA, 0.005% Tween 20, temperature not stated; SAXS: HBS, 2 mM MgCl2, 25 C. The following applies: protein: recombinant.
The target in another series is pro-uPA Y284/127A (Homo sapiens, UniProt P00749 21-431, Y304A). Description: SPR competition; still inhibits uPAR binding (data not shown); SPR: HBS (20 mM HEPES, 140 mM NaCl, pH 7.4), 2 mM MgCl2, 0.1% BSA, 0.005% Tween 20, temperature not stated; SAXS: HBS, 2 mM MgCl2, 25 C. The following applies: protein: recombinant; 79 nt.
The target of another series is pro-uPA R391/231A (Homo sapiens, UniProt P00749 21-431, R411A). The description is as above. The note with it: protein: recombinant; 79 nt.
Another series addresses ATF of uPA (UniProt P00749 21-151). Description: SPR competition; inhibition of 4 nM ATF binding to immobilized uPAR; SPR: HBS (20 mM HEPES, 140 mM NaCl, pH 7.4), 2 mM MgCl2, 0.1% BSA, 0.005% Tween 20, temperature not stated; SAXS: HBS, 2 mM MgCl2, 25 C. The note with it: protein: commercial; 79 nt.
The target in the next series is T3, GFD of uPA (Homo sapiens, UniProt P00749 24-63).
T3 chain: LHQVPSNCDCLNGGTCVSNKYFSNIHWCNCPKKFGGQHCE
Description: SPR competition; 50 nM aptamer; no inhibition of GFD binding to uPAR; SPR: HBS (20 mM HEPES, 140 mM NaCl, pH 7.4), 2 mM MgCl2, 0.1% BSA, 0.005% Tween 20, temperature not stated; SAXS: HBS, 2 mM MgCl2, 25 C. The note with it: protein: recombinant; 79 nt.

In series [3] the target is T2, pro-uPA wild type. Description: SPR competition; inhibition of 4 nM pro-uPA binding to immobilized uPAR; SPR: HBS (20 mM HEPES, 140 mM NaCl, pH 7.4), 2 mM MgCl2, 0.1% BSA, 0.005% Tween 20, temperature not stated; SAXS: HBS, 2 mM MgCl2, 25 C. The note with it: protein: recombinant; 79 nt.
The target of series [4] is T1, pro-uPA wild type;uPAR. Description: SPR; 100 nM aptamer on captured pro-uPA:uPAR; SPR: HBS (20 mM HEPES, 140 mM NaCl, pH 7.4), 2 mM MgCl2, 0.1% BSA, 0.005% Tween 20, temperature not stated; SAXS: HBS, 2 mM MgCl2, 25 C. The note with it: protein: recombinant;recombinant; tags: ;; copies: 1;1. A general note: SPR reads the build-up and loss of mass on a sensor chip optically.

Series [5] deals with T2, pro-uPA wild type. Description: competition, 125I-pro-uPA cell binding; U937 cells, 1 h, 4 C; effect lost on prolonged incubation; SPR: HBS (20 mM HEPES, 140 mM NaCl, pH 7.4), 2 mM MgCl2, 0.1% BSA, 0.005% Tween 20, temperature not stated; SAXS: HBS, 2 mM MgCl2, 25 C. The note with it: protein: recombinant.

Experimental findings from publication PMC4368798, “Protein-Binding RNA Aptamers Affect Molecular Interactions Distantly from Their Binding Sites” are described below.

T1 sequence (Q03405 23-305, chain 2 of 2, other chains not shown): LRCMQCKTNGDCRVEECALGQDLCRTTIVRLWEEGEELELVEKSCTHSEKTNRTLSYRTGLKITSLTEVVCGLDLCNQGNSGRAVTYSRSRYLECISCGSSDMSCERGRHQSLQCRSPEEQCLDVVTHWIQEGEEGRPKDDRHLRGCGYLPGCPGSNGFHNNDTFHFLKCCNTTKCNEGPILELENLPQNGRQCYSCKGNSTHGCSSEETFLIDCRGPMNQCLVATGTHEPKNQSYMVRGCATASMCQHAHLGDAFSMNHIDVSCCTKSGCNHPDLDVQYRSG

B1: control RNA (XNA)
RNA: GGGGCCACCAACGACAUUAACUCACGUUGCAACUAAUACGCUGAGUGGAAACCGUUGAUAUAAAUAGUGCCCAUGGAUC
modifications: 2'-fluoro pyrimidines (2'-F-C, 2'-F-U)
B1: the binding result with pro-uPA wild type;uPAR [1] and with pro-uPA wild type [2] was “no binding” in each case.

B2: upanap-12 (XNA)
RNA: GGGGCCACCAACGACAUUUGCGACUGUUAUAACCUAACAGCGACGUAAAGAUAGUUGAUAUAAAUAGUGCCCAUGGAUC
modifications: 2'-fluoro pyrimidines (2'-F-C, 2'-F-U)
For B2, the figures for the binding result with pro-uPA Y284/127A, with pro-uPA R391/231A and with GFD of uPA were “binds”, “binds” and “no binding”, respectively. The IC50 was 1.8 ± 0.2 nM with ATF of uPA and 2.2 ± 0.1 nM in the series with pro-uPA wild type [3].

B3: upanap-126 (XNA)
RNA: GGGGCCACCAACGACAUUCAUUCGCACGCUGUGUGGGGAUUAGUCCCGAUGUUGUUGAUAUAAAUAGUGCCCAUGGAUC
modifications: 2'-fluoro pyrimidines (2'-F-C, 2'-F-U)
As for B3, the binding result in the series with pro-uPA wild type;uPAR [4] is listed as “binds”. In the series with pro-uPA wild type [5], the IC50 is approximately 500 nM.

What is called IC50 is the midpoint of a concentration-inhibition curve.
